Laboratory results reported in US20210163923A1 (IONTAS, published 2021).

B1: mono-specific anti-FIXa IgG (Emicizumab anti-FIXa VH with Emicizumab VL, pINT17-BSD-anti-FIXa) (antibody, V domains shown)
VH: QVQLVESGGGLVQPGGSLRLSCAASGFTFSYYDIQWVRQAPGKGLEWVSSISPSGQSTYYRREVKGRFTISRDNSKNTLYLQMNSLRAEDTAVYYCARRTGREYGGGWYFDYWGQGTLVTVSS
VL: DIQMTQSPSSLSASVGDRVTITCKASRNIERQLAWYQQKPGQAPELLIYQASRKESGVPDRFSGSRYGTDFTLTISSLQPEDIATYYCQQYSDPPLTFGGGTKVEIK
notes: also called mono-specific anti-FIXa arm in IgG format
B2: Emicizumab (bi-specific, displayed from pINT17-Bi-CMV-Emicizumab) (bispecific antibody, human IgG4 S228P)
light: DIQMTQSPSSLSASVGDRVTITCKASRNIERQLAWYQQKPGQAPELLIYQASRKESGVPDRFSGSRYGTDFTLTISSLQPEDIATYYCQQYSDPPLTFGGGTKVEIKRTAAAPSVFIFPPSDEQLKSGTASVVCLLNNFYPREAKVQWKVDNALQSGNSQESVTEQDSKDSTYSLSSTLTLSKADYEKHKVYACEVTHQGLSSPVTKSFNRGEC
heavy 1: QVQLVESGGGLVQPGGSLRLSCAASGFTFSYYDIQWVRQAPGKGLEWVSSISPSGQSTYYRREVKGRFTISRDNSKNTLYLQMNSLRAEDTAVYYCARRTGREYGGGWYFDYWGQGTLVTVSSASTKGPSVFPLAPCSRSTSESTAALGCLVKDYFPEPVTVSWNSGALTSGVHTFPAVLQSSGLYSLSSVVTVPSSSLGTQTYTCNVDHKPSNTKVDKRVESKYGPPCPPCPAPEFLGGPSVFLFPPKPKDTLMISRTPEVTCVVVDVSQEDPEVQFNWYVDGVEVHNAKTKPREEQYNSTYRVVSVLTVLHQDWLNGKEYKCKVSNKGLPSSIEKTISKAKGQPREPQVYTLPPSQKEMTKNQVSLTCLVKGFYPSDIAVEWESNGQPENNYKTTPPVLDSDGSFFLYSKLTVDKSRWQEGNVFSCSVMHEALHNRYTQKSLSLSPEQKLISEEDLNAVGQDTQEVIVVPHSLPFKVVVISAILALVVLTIISLIILIMLWQKKPR
heavy 2: QVQLVQSGSELKKPGASVKVSCKASGYTFTDNNMDWVRQAPGQGLEWMGDINTRSGGSIYNEEFQDRVIMTVDKSTDTAYMELSSLRSEDTATYHCARRKSYGYYLDEWGEGTLVTVSSASTKGPSVFPLAPCSRSTSESTAALGCLVKDYFPEPVTVSWNSGALTSGVHTFPAVLQSSGLYSLSSVVTVPSSSLGTQTYTCNVDHKPSNTKVDKRVESKYGPPCPPCPAPEFLGGPSVFLFPPKPKDTLMISRTPEVTCVVVDVSQEDPEVQFNWYVDGVEVHNAKTKPREEQYNSTYRVVSVLTVLHQDWLNGKEYKCKVSNKGLPSSIEKTISKAKGQPREPQVYTLPPSQEEMTKNQVSLTCLVKGFYPSDIAVEWESNGQPENNYKTTPPVLDSDGSFFLYSKLTVDKSRWQEGNVFSCSVMHEALHNHYTQESLSLSPEQKLISEEDLNAVGQDTQEVIVVPHSLPFKVVVISAILALVVLTIISLIILIMLWQKKPR
notes: also called bi-specific Emicizumab; knobs-into-holes common light chain IgG
B3: Ustekinumab (antibody, V domains shown)
VH: EVQLVQSGAEVKKPGESLKISCKGSGYSFTTYWLGWVRQMPGKGLDWIGIMSPVDSDIRYSPSFQGQVTMSVDKSITTAYLQWNSLKASDTAMYYCARRRPGQGYFDFWGQGTLVTVS
VL: DIQMTQSPSSLSASVGDRVTITCRASQGISSWLAWYQQKPEKAPKSLIYAASSLQSGVPSRFSGSGSGTDFTLTISSLQPEDFATYYCQQYNIYPYTFGQGTKLEIKR
notes: Anti-IL12 antibody; also called Ustenkinumab; Ustenikumab
B4: 337_1_C08 (antibody, V domains shown)
VH: EVQLVQSGAEVKRPGASVTVSCKASGYTFTNHGISWVRQAPGQGLEWMGWNSPYNGNTNYAQRFQGRVTMTTDTSTNTAYMELRTLTSDDTAMYYCARDRDYYDAGSYWGQGTLVTVSS
VL: SYELTQPPSVSVSPGQTARITCSGDSLPKQYAYWYQQKPGQAPVLVIYKDSERPSGIPERFSGSGSGTTVTLTISGVQAEDEADYYCQSADSDNAFVFGRGTKLTVL
notes: Anti-PD1 antibody identified by phage display; also called anti-PD1 antibody 337_1_C08; 337_C08

Experiments:
[1] = target: T1, unconjugated streptavidin-PE (UniProt P22629 37-163, limits assumed, phycoerythrin conjugate); test: flow cytometry of HEK293 cells 24 hours after transfection, stained with streptavidin-PE alone [panel Streptavidin PE]
T1 construct: Control staining reagent; also called streptavidin-PE alone

[2] = target: T1, unconjugated streptavidin-PE; test: flow cytometry of HEK293 cells displaying the IgG, stained with streptavidin PE alone
[3] = target: T2, PD-1 (UniProt Q15116 25-167, biotinylated in the MACS experiments); test: surface plasmon resonance (SPR)
T2 construct: The catalogue number points to a human PD-1 reagent; also called biotinylated PD1 (PD1-H82E4, AcroBiosystems); PD-1-biotin
T2 sequence (Q15116 25-167 limits assumed): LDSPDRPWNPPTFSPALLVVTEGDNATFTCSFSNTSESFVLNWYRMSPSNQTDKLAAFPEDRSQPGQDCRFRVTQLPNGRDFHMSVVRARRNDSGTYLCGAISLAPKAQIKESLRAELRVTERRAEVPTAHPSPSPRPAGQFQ

T1 sequence (P22629 37-163 limits assumed): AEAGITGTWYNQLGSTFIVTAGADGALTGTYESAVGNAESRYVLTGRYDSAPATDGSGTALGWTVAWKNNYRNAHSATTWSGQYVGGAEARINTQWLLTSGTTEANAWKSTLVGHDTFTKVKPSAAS

Binder	binding result [1]	further results
B1	no binding	–
B2	no binding	–
B3	–	binding result [2]: no binding
B4	–	Kd [3]: 74 nM
